Publication PMC12748766, “Structural basis for human chondroitin sulfate chain polymerization” (Nature Communications, 2025)
Where a chain is given by its changes, count along the chain named.

Tests used:
Test in all cases: mass photometry; Refeyn OneMP; purified complexes diluted in 20 mM MES pH 6.5, 150 mM NaCl to around 25 nM
Details in all cases: both partners purified
[1] = biological target: T1, CHSY3^D718N/D720N, secreted construct aa157-aa882 (human, UniProt Q70JA7 157-882, D718N | D720N)
T1 construct: CHSY3, human, UniProt Q70JA7, residues 157-882, mutations in the DxD motif of the C-terminal GT domain; source: Freestyle 293-F cells, co-transfected with CHPF, secreted; purified by the same protocol as the wild-type complexes; not shown: SUMO, N-terminal, cleaved; His6, N-terminal, cleaved
T1 sequence (looked up): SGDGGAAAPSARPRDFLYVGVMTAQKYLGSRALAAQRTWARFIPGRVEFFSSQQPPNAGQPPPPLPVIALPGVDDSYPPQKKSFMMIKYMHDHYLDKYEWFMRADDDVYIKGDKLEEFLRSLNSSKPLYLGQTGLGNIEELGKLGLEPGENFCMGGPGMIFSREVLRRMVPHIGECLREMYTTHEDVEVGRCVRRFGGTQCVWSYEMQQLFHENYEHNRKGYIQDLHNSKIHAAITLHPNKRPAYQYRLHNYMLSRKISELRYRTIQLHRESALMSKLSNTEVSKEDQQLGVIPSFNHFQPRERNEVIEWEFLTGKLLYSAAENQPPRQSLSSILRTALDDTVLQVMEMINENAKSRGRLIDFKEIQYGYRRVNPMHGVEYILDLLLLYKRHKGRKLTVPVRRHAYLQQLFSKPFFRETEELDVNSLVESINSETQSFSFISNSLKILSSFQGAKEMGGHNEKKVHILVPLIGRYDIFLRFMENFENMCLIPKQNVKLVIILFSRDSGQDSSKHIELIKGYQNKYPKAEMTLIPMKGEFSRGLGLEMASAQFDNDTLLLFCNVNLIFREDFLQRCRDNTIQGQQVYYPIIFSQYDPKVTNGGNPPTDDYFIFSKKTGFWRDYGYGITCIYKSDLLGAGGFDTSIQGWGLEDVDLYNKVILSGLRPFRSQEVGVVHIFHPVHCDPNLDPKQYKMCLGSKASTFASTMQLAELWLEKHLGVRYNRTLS

[2] = biological target: T2, Chondroitin Sulfate Synthase-3 (CHSY3), secreted N-terminally truncated construct aa157-aa882 (human, UniProt Q70JA7 157-882)
T2 construct: CHSY3, human, UniProt Q70JA7, residues 157-882 (membrane-spanning helix removed); Construct in pHR-CMV-TetO2 with an N-terminal chicken RPTP sigma signal peptide, SUMO, 6x His and a 3C site; no cleavage site before the C-terminal Avi tag; source: Freestyle 293-F cells, co-transfected, secreted; purified from the supernatant (HisTrap, 3C protease, second HisTrap); not shown: SUMO, N-terminal, …
T2 sequence (looked up): T1 sequence (looked up) with N562D, N564D

[3] = biological target: T3, CHSY3^H831A, secreted construct aa157-aa882 (human, UniProt Q70JA7 157-882, H831A)
T3 construct: CHSY3, human, UniProt Q70JA7, residues 157-882, mutation in the C-terminal GT domain; source: Freestyle 293-F cells, co-transfected with CHPF, secreted; purified by the same protocol as the wild-type complexes; not shown: SUMO, N-terminal, cleaved; His6, N-terminal, cleaved
T3 sequence (looked up): T1 sequence (looked up) with N562D, N564D, H675A

binding result [1]: binds
binding result [2]: binds
binding result [3]: binds
B1: Chondroitin Polymerizing Factor (CHPF), secreted N-terminally truncated construct aa81-aa775 (domain or fragment, human, UniProt Q8IZ52 81-775, looked up)
chain: GENWEPRVLPYHPAQPGQAAKKAVRTRYISTELGIRQRLLVAVLTSQTTLPTLGVAVNRTLGHRLERVVFLTGARGRRAPPGMAVVTLGEERPIGHLHLALRHLLEQHGDDFDWFFLVPDTTYTEAHGLARLTGHLSLASAAHLYLGRPQDFIGGEPTPGRYCHGGFGVLLSRMLLQQLRPHLEGCRNDIVSARPDEWLGRCILDATGVGCTGDHEGVHYSHLELSPGEPVQEGDPHFRSALTAHPVRDPVHMYQLHKAFARAELERTYQEIQELQWEIQNTSHLAVDGDQAAAWPVGIPAPSRPASRFEVLRWDYFTEQHAFSCADGSPRCPLRGADRADVADVLGTALEELNRRYHPALRLQKQQLVNGYRRFDPARGMEYTLDLQLEALTPQGGRRPLTRRVQLLRPLSRVEILPVPYVTEASRLTVLLPLAAAERDLAPGFLEAFATAALEPGDAAAALTLLLLYEPRQAQRVAHADVFAPVKAHVAELERRFPGARVPWLSVQTAAPSPLRLMDLLSKKHPLDTLFLLAGPDTVLTPDFLNRCRMHAISGWQAFFPMHFQAFHPAVAPPQGPGPPELGRDTGRFDRQAASEACFYNSDYVAARGRLAAASEQEEELLESLDVYELFLHFSSLHVLRAVEPALLQRYRAQTCSARLSEDLYHRCLQSVLEGLGSRTQLAMLLFEQEQGNST
notes: CHPF, human, UniProt Q8IZ52, residues 81-775 (membrane-spanning helix removed); Construct in pHR-CMV-TetO2 with an N-terminal chicken RPTP sigma signal peptide, SUMO, 6x His and a 3C site; a second 3C site stands before the C-terminal twin streptavidin tag; also called Chondroitin sulfate synthase 2; source: Freestyle 293-F cells, co-transfected, secreted; purified from the supernatant (HisTrap, …)
